Measured values as given in paper PMC11797550.

Tests used:
[1] = target: USP1 (ultraspiracle), endogenous in the larval fat body; assay: Co-IP (anti-IDE antibody) with western blot band quantification; details: fat body of larvae; 10% gel in SDS-PAGE; three replicates; parent: est. 0.49; read off a plot
[2] = target: IGF-2-like, endogenous in the larval fat body; assay: as above; details: fat body of larvae; 10% gel in SDS-PAGE; three replicates; parent: est. 0.18; read off a plot

response [1]: 0.16 USP1/ACTB | response (IGF-2-like/ACTB) [2]: 0.46
Substance: IDE, wild type, endogenous in the larval fat body K179R
